According to patent US20160009806A1 (Seagen, published 2016):
Changes are numbered by the printed parent chain. One block for each binder: values may come before it.

Legend:
[1] = target: T1, human integrin αvβ6 on cells (human, UniProt P06756 31-1048; P18564 22-788); test: saturation binding of biotinylated antibody, flow cytometry on 293F:huβ6 cells (apparent Kd)
T1 construct: whole, on cells; also called HEK293F:huβ6
Experimental: (§1) 0.25-0.5×10⁶ antigen expressing cells were aliquoted per well into a 96-well v-bottom plate. m15H3, h15H3 (HBLC) and h15H3 (HTLC) were directly labeled with equivalent levels of biotin and added to cells at concentrations ranging from 0.1 pM-150 nM. Cells were incubated on ice for 30 minutes, washed three times in FACS buffer (PBS, 2% fetal bovine serum, 1 mM MgCl₂, 1 mM CaCl₂, 0.02% NaN₃), incubated on ice for 45 minutes with PE conjugated streptavidin (0.5 ug/ml) in FACS buffer, washed three times and resuspended in FACS buffer. Binding was detected using a Becton Dickinson Biosciences FACSCalibur (San Jose, Calif.). The apparent Kd was calculated using GraphPad Software (LaJolla, Calif.).

[2] = target: T2, mouse integrin αvβ6 on FDC-P1:muβ6 cells (mouse, UniProt P43406 31-1044; Q9Z0T9 22-787); test: saturation binding of biotinylated antibody, flow cytometry on FDC-P1:muβ6 cells (apparent Kd)
T2 construct: whole, on cells; Heterodimer of endogenous mouse αv and recombinant mouse β6
Experimental: as §1

[3] = target: T1, human integrin αvβ6 on cells; test: competition binding, flow cytometry on 293F cells expressing αvβ6; competitor 2 nM AlexaFluor-647 m15H3
Experimental: (§2) 1×10⁵ antigen expressing cells were aliquoted in each well of a 96-well v-bottom plate on ice. […] Cells were pelleted and washed 3 times with PBS. The cells were pelleted and resuspended in 125 uL of PBS/BSA. Fluorescence was analyzed by flow cytometery, using percent of saturated fluorescent signal to determine percent labeled murine 15H3 bound and to subsequently extrapolate the EC50 by fitting the data to a sigmoidal dose-response curve with variable slope.

[4] = target: T3, cynomolgus integrin αvβ6 on 293F:cynoβ6 cells (human; cynomolgus, UniProt P06756 31-1048; A0A2K5TZ36 22-787); test: saturation binding of biotinylated antibody, flow cytometry on 293F:cynoβ6 cells (apparent Kd)
T3 construct: whole, on cells; also called HEK293F:cynoβ6
Experimental: as §1

[5] = target: T1, human integrin αvβ6 on cells; test: competition binding on 293F cells expressing human αvβ6 (FIG. 2)
Experimental: as §2

[6] = target: T4, rat integrin αvβ6 on NBT-II bladder carcinoma cells (rat, UniProt F1LZX9 31-1043; Q6AYF4 22-787); test: saturation binding of biotinylated antibody, flow cytometry on rat NBT-II cells (apparent Kd)
T4 construct: whole, on cells; Endogenous αvβ6 of rat NBT-II cells; also called rat αvβ6; rat NBT-II
Experimental: as §1
The KD for the murine αvβ6 monoclonal antibody 15H3 antibody and select humanized version thereof was determined for human, cyno, rat, and mouse. […] The genetically engineered cell lines express endogenous αv which pairs with the recombinant β6 chain to produce a heterodimeric receptor composed of endogenous αv and recombinant β6. The affinity for rat αvβ6 was determined using rat NBT-II bladder carcinoma cells, which expression endogenous αvβ6.

[7] = target: T1, human integrin αvβ6 on cells; test: cell-based or functional assay
[8] = target: T5, integrin αvβ5 on the parental line 293F:vector (human, UniProt P06756 31-1048; P18084 24-799); test: FMAT and FACS binding on cells
T5 construct: whole, on cells; Negative control cells; also called HEK293F:vector

[9] = target: T6, recombinant αvβ8 (human, UniProt P06756 31-992; P26012 43-684); test: ELISA, integrin coated at 1 ug/ml, biotinylated antibody
T6 construct: Bought from R&D Systems; species read from 'recombinant human αvβ6, αvβ3 and αvβ8'
Experimental: (§3) 96-well Maxisorb plates (Nunc) were coated overnight at 4° C. with 1 ug/ml of recombinant human αvβ6, αvβ3 and αvβ8 diluted in PBS. Plates were washed in PBS with 0.05% Tween 20 (PBS-T). Wash buffer was removed and plates were blocked for 30 minutes at room temperature in TBS blocking buffer (TBS plus 1 mM MnCl₂, 0.05% Tween 20, 1% BSA). Plates were washed and then incubated for 1 hour with biotinylated antibody (m15H3 or h15H3) diluted in TBS blocking buffer at concentrations that ranged from 4.6 ng/m1-10 ug/ml. Plates were washed, incubated for 1 hour with 1 ug/ml of HRP-streptavidin, washed, and then incubated with TMB substrate for 10 minutes. The reaction was stopped with 1 M H₂SO₄. Absorbance at 450 nm was read using a Fusion HT plate reader (Perkin Elmer, Waltham, Mass.).
(§4) BALB/c mice were immunized three times with intraperitoneal injections of ˜5×10⁶ 3 T3:huβ6 transfectants. Three days prior to fusion, mice received a final injection of purified recombinant human αvβ6 that was given intravenously (6 ug) and intraperitoneally (30 ug). Lymphocytes harvested from spleen and lymph nodes were fused to P3X63Ag8.653 myeloma cells using polyethylene glycol. Fused cells were recovered overnight in hybridoma growth media (IMDM containing 4 mM glutamine, 10% Fetal Clone I, 10% Cloning Factor and Penicillin/Streptomycin). […] The plates were read in an FMAT 8200 (Applied Biosystems).

[10] = target: T7, recombinant αvβ3 (human, UniProt P06756 31-992; P05106 27-718); test: as above
T7 construct: Bought from R&D Systems; species read from 'recombinant human αvβ6, αvβ3 and αvβ8'
Experimental: as §3, §4

T1 sequence (P06756 31-1048, chain 1 of 2): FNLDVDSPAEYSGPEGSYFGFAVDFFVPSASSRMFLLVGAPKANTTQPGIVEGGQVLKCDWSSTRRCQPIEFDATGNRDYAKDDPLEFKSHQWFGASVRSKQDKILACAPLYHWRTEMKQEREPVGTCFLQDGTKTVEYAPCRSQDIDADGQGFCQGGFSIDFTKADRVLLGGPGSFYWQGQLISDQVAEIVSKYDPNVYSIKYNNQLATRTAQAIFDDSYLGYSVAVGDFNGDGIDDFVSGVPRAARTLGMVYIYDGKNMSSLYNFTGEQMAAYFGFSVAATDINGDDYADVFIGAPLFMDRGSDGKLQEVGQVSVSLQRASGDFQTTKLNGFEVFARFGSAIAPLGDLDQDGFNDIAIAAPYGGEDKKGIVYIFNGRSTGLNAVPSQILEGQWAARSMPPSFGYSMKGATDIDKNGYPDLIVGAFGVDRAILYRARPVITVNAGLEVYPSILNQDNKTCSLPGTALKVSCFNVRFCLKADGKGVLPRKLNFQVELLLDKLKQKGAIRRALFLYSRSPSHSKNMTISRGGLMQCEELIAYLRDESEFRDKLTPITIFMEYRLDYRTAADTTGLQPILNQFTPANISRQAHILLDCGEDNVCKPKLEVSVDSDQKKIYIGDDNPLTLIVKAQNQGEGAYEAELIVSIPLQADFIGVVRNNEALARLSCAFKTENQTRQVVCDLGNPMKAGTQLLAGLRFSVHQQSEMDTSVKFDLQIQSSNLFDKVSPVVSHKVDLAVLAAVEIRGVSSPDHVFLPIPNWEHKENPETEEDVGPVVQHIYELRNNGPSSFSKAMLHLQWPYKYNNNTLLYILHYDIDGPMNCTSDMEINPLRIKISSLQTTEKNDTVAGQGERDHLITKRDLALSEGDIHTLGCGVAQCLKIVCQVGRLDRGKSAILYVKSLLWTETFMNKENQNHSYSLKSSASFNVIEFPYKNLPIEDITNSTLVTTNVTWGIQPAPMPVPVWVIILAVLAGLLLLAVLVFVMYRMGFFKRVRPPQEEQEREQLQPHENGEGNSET
T1 sequence (P18564 22-788, chain 2 of 2): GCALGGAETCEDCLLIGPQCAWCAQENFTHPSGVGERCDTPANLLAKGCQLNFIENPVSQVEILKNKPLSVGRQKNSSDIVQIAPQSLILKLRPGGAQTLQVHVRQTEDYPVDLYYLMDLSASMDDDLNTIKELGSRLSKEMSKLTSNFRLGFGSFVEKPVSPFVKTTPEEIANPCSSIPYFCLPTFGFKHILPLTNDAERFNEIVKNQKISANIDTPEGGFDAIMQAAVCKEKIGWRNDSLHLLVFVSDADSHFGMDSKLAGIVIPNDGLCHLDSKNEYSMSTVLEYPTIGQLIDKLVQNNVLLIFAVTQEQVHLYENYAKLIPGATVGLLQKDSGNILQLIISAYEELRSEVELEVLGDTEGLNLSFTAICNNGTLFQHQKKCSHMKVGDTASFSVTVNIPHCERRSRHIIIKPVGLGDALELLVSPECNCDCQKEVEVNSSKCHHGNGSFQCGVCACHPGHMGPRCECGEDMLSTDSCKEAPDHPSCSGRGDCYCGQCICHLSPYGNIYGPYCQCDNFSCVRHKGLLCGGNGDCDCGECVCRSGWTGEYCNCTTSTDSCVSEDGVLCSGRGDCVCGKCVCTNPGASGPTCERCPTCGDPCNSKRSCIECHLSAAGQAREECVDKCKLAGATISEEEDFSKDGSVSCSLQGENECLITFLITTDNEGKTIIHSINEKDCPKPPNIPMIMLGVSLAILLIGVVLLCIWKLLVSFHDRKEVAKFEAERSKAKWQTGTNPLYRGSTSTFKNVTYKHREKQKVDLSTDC
T2 sequence (P43406 31-1044, chain 1 of 2): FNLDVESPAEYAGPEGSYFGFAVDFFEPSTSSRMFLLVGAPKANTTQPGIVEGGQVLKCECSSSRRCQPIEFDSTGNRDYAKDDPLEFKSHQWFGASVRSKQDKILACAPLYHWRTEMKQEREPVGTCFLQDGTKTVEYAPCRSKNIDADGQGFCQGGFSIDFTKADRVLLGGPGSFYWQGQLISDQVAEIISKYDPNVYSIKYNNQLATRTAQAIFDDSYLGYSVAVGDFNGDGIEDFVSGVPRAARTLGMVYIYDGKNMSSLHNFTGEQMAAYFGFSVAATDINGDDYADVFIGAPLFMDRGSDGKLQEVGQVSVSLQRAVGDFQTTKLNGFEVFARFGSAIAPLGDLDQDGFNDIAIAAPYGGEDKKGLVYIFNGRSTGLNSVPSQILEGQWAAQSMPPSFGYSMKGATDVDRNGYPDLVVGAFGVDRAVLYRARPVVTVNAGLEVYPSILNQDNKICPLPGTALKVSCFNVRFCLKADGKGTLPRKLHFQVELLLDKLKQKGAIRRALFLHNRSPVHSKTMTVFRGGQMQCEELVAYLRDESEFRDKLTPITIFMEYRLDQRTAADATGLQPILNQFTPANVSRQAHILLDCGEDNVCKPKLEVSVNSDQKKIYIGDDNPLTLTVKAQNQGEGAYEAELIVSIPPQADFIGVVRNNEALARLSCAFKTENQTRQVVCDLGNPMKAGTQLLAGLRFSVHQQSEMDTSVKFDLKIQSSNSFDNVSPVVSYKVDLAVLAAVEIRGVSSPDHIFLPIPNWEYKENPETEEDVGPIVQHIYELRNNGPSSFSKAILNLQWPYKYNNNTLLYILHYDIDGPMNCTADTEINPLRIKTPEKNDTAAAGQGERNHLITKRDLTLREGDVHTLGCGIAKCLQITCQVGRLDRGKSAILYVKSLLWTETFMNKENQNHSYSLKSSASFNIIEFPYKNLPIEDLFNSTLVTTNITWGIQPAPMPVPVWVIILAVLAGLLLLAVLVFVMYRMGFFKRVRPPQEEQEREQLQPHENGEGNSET
T2 sequence (Q9Z0T9 22-787, chain 2 of 2): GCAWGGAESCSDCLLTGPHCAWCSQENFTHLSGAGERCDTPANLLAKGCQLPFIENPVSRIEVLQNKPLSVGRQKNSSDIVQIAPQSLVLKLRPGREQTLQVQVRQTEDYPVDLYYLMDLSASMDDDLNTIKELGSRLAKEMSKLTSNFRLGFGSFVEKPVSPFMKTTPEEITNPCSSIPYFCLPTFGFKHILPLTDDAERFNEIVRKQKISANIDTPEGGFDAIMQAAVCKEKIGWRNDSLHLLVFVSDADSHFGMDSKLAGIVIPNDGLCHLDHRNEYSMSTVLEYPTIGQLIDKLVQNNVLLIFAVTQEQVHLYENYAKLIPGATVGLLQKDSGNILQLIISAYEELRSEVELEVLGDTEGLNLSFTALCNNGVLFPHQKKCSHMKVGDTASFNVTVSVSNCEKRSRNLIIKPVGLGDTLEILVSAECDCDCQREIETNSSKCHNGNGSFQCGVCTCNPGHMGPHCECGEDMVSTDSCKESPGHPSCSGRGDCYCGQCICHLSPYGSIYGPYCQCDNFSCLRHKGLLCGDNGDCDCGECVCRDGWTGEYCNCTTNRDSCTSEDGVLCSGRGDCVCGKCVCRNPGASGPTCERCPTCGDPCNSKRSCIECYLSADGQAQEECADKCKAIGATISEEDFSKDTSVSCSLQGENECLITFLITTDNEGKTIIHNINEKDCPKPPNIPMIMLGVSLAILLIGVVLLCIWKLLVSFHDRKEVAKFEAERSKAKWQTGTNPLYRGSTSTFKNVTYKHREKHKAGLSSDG
T5 sequence (P06756 31-1048, chain 1 of 2): as the sequence (P06756 31-1048, chain 1 of 2) above
T5 sequence (P18084 24-799, chain 2 of 2): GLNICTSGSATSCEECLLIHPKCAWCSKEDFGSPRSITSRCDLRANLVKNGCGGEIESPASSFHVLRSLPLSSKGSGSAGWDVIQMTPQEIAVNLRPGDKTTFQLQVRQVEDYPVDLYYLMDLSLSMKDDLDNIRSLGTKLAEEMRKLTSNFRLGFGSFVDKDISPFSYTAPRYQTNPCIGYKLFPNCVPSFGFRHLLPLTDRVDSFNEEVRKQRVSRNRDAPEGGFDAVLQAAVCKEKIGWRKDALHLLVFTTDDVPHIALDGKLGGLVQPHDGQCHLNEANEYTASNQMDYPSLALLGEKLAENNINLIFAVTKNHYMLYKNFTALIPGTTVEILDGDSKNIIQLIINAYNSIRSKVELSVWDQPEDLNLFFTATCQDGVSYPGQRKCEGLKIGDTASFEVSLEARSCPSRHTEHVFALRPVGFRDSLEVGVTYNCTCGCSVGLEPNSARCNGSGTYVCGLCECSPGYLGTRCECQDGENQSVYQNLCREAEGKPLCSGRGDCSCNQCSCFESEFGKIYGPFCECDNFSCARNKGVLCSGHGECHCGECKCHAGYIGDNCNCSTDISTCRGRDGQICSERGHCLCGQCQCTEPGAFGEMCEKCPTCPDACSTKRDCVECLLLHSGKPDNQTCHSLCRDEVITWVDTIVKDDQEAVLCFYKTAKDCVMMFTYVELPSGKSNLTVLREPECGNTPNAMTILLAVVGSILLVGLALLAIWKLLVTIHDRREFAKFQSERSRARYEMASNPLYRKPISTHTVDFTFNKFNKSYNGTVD

Kd [1]: 1.4 nM
Kd [2]: 0.6 nM
EC50 [3]: 8.14 nM
Kd [4]: 1.6 nM
B1: humanized 15H3 antibody HBLC (antibody, V domains shown)
VH: QVQLVQSGAEVKKPGASVKVSCKASGYSFSGYFMNWVRQAPGQGLEWMGLINPYNGDSFYNQKFKGRVTMTRDTSTSTVYMELSSLRSEDTAVYYCARGLRRDFDYWGQGTLVTVSS
VL: DVVMTQSPLSLPVTLGQPASISCKSSQSLLDSDGKTYLNWLFQRPGQSPRRLIYLVSELDSGVPDRFSGSGSGTDFTLKISRVEAEDVGVYYCWQGTHFPRTFGGGTKLEIKR
notes: Only variable regions are tied to the construct; also called h15H3 (HBLC); h15H3-1

EC50 [3]: 0.49 nM
B2: humanized 15H3 antibody HMLC (antibody, V domains shown)
VH: B1 VH with D73Q, T74K, T76S, V79A
VL: B1 VL

EC50 [3]: 26.7 nM
B3: humanized 15H3 antibody HRLC (antibody, V domains shown)
VH: B1 VH with T76S, V79A
VL: B1 VL

binding result [5]: binds
B4: humanized 15H3 antibody HBLB (antibody, V domains shown)
VH: B1 VH
VL: B1 VL with I21L, S22F, L41F, F42Q
notes: HB heavy chain with LB light chain of the first humanization round

binding result [5]: binds
B5: humanized 15H3 antibody HBLD (antibody, V domains shown)
VH: B1 VH
VL: B1 VL with L41F, F42Q, R50K
notes: HB heavy chain with LD light chain of the first humanization round

binding result [5]: binds
B6: humanized 15H3 antibody HBLE (antibody, V domains shown)
VH: B1 VH
VL: B1 VL with L41F, F42Q, S68T
notes: HB heavy chain with LE light chain of the first humanization round

EC50 [3]: 1.07 nM
B7: humanized 15H3 antibody HMLG (antibody, V domains shown)
VH: B1 VH with D73Q, T74K, T76S, V79A
VL: B1 VL with M4L

binding result [5]: binds
B8: humanized 15H3 antibody HBLF (antibody, V domains shown)
VH: B1 VH
VL: B1 VL with I21L, S22F, R50K, S68T
notes: HB heavy chain with LF light chain of the first humanization round

EC50 [3]: 0.74 nM
B9: humanized 15H3 antibody HLLC (antibody, V domains shown)
VH: B1 VH with T74K, T76S, V79A
VL: B1 VL
notes: also called h15H3-2

Kd [1]: 1.2 nM
Kd [2]: 0.3 nM
EC50 [3]: 3.7 nM
Kd [4]: 1.5 nM
Kd [6]: 0.4 nM
B10: humanized 15H3 antibody HTLC (antibody, V domains shown)
VH: B1 VH with D73Q, A97V
VL: B1 VL
notes: Only variable regions are tied to the construct; also called h15H3 (HTLC); h15H3-3

EC50 [3]: 11.1 nM
B11: humanized 15H3 antibody HNLC (antibody, V domains shown)
VH: B1 VH with D73Q
VL: B1 VL

binding result [5]: binds
B12: humanized 15H3 antibody HBLA (antibody, V domains shown)
VH: B1 VH
VL: B1 VL with L41F, F42Q
notes: HB heavy chain with LA light chain of the first humanization round

EC50 [3]: 3.16 nM
B13: humanized 15H3 antibody HNLG (antibody, V domains shown)
VH: B1 VH with D73Q
VL: B1 VL with M4L

EC50 [3]: 0.93 nM
B14: humanized 15H3 antibody HULC (antibody, V domains shown)
VH: B1 VH with D73Q, T74K, T76S, V79A, A97V
VL: B1 VL

EC50 [3]: 23.9 nM
B15: humanized 15H3 antibody HRLG (antibody, V domains shown)
VH: B1 VH with T76S, V79A
VL: B1 VL with M4L

EC50 [3]: 32.5 nM
B16: humanized 15H3 antibody HSLC (antibody, V domains shown)
VH: B1 VH with D73Q, T76S, V79A
VL: B1 VL

EC50 [3]: 0.97 nM
B17: humanized 15H3 antibody HLLG (antibody, V domains shown)
VH: B1 VH with T74K, T76S, V79A
VL: B1 VL with M4L

B18: murine 15H3 antibody conjugated with vcMMAE (antibody, V domains shown)
VH: EVQLQQSGPELVKPGASVKISCKASGYSFSGYFMNWVKQSHGQSLEWIGLINPYNGDSFYNQKFKGKATLTVQKSSSTAHMELQSLTSEDSAVFYCVRGLRRDFDYWGQGTPLTVSS
VL: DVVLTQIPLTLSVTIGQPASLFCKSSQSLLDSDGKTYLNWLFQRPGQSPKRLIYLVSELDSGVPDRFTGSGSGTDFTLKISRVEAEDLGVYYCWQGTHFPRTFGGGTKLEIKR
modifications: vcMMAE drug-linker conjugated to the antibody (site and loading not stated for the murine ADC)
IC50 (ng/ml), cytotoxicity assay on 5637 cells (36 x10^3 αvβ6 copies/cell) [7]: > 1000 ng/mL
IC50 (ng/ml), cytotoxicity assay on BxPC3 cells (37 x10^3 αvβ6 copies/cell) [7]: 34 ng/mL
IC50 (ng/ml), cytotoxicity assay on Capan-1 cells (19 x10^3 αvβ6 copies/cell) [7]: 365 ng/mL
IC50 (ng/ml), cytotoxicity assay on HPAFII cells (22 x10^3 αvβ6 copies/cell) [7]: 76 ng/mL
IC50 (ng/ml), cytotoxicity assay on HupT4 cells (184 x10^3 αvβ6 copies/cell) [7]: 35 ng/mL
IC50 (ng/ml), cytotoxicity assay on Panc08.13 cells (137 x10^3 αvβ6 copies/cell) [7]: 93 ng/mL
IC50 (ng/ml), cytotoxicity assay on RT4 cells (42 x10^3 αvβ6 copies/cell) [7]: > 1000 ng/mL
IC50 (ng/ml), cytotoxicity assay on SW780 cells (80 x10^3 αvβ6 copies/cell) [7]: 614 ng/mL

B19: murine 15H3 antibody conjugated with mcMMAF (antibody, V domains shown)
VH: B18 VH
VL: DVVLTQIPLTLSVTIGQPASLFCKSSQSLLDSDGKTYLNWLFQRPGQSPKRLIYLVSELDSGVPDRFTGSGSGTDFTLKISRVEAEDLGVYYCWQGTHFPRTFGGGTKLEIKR
modifications: mcMMAF drug-linker conjugated to the antibody (site and loading not stated for the murine ADC)
IC50 (ng/ml), cytotoxicity assay on 5637 cells (36 x10^3 αvβ6 copies/cell) [7]: > 1000 ng/mL
IC50 (ng/ml), cytotoxicity assay on BxPC3 cells (37 x10^3 αvβ6 copies/cell) [7]: 7 ng/mL
IC50 (ng/ml), cytotoxicity assay on Capan-1 cells (19 x10^3 αvβ6 copies/cell) [7]: 1510 ng/mL
IC50 (ng/ml), cytotoxicity assay on HPAFII cells (22 x10^3 αvβ6 copies/cell) [7]: > 2000 ng/mL
IC50 (ng/ml), cytotoxicity assay on HupT4 cells (184 x10^3 αvβ6 copies/cell) [7]: 16 ng/mL
IC50 (ng/ml), cytotoxicity assay on Panc08.13 cells (137 x10^3 αvβ6 copies/cell) [7]: 1400 ng/mL
IC50 (ng/ml), cytotoxicity assay on RT4 cells (42 x10^3 αvβ6 copies/cell) [7]: > 1000 ng/mL
IC50 (ng/ml), cytotoxicity assay on SW780 cells (80 x10^3 αvβ6 copies/cell) [7]: 86 ng/mL

Kd [1]: 0.8 nM
binding result [8]: no binding
Kd [2]: 0.2 nM
binding result [9]: no binding (tested: 4.6 ng/ml-10 ug/ml)
binding result [10]: no binding (tested: 4.6 ng/ml-10 ug/ml)
Kd [4]: 1 nM
Kd [6]: 0.2 nM
B20: murine 15H3 monoclonal antibody (antibody, V domains shown)
VH: B18 VH
VL: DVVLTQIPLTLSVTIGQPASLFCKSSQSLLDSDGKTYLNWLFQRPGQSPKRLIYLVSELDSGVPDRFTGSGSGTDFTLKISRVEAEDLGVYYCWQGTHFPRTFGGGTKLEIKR
notes: Murine hybridoma antibody; also called m15H3; mouse 15H3
